Results from patent US20060281072A1 (CRUCELL HOLLAND B V, published 2006).

Columns and labels:
[1] = biological target: T1, human OX40-Ig fusion protein (human, UniProt P43489 29-214); assay: phage ELISA on coated human OX40-Ig, anti-M13 peroxidase, absorbance at 492 nm
T1 construct: extracellular domain; Bought (Alexis Biochemicals); not shown: CH2 and CH3 domains of human IgG1
T1 sequence (looked up): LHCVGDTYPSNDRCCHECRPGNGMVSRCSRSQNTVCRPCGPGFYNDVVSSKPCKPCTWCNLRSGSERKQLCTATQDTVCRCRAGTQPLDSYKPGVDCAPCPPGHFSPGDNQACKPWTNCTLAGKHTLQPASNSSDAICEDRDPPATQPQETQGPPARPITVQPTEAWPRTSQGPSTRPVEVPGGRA
Experimental: Selected phage antibodies that were obtained in the screen described above, were validated in ELISA for specificity. For this purpose, human OX40-Ig was coated to Maxisorp™ ELISA plates. After coating, the plates were blocked in 2% MPBS. The selected phage antibodies were incubated in an equal volume of 4% MPBS. The plates are emptied, washed once in PBS, after which the blocked phages were added. Incubation was allowed to proceed for 1 hour, the plates were washed in PBS containing 0.1% Tween-20 and bound phages were detected using an anti-M13 antibody conjugated to peroxidase. As a control, the procedure was performed simultaneously using a control phage antibody directed against thyroglobulin (De Kruif et al. 1995a and 1995b), which served as a negative control.

human OX40-receptor [2] = biological target: T2, human OX40-receptor (human, UniProt P43489 29-277); assay: flow cytometry, mix of OX40-receptor transfected (green, PKH67) and control transfected PER.C6 cells, M13 anti-phage PE
T2 construct: whole, on cells; also called CD134; ACT-4
T2 sequence (looked up): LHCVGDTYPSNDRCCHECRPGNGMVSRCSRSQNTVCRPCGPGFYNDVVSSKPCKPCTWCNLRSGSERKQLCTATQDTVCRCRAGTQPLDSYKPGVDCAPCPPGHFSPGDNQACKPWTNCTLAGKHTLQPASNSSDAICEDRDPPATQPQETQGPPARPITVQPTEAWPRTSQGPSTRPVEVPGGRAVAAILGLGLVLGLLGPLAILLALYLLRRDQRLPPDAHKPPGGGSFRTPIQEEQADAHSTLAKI
Experimental: In another assay the phage antibodies were analyzed for their ability to bind PER.C6™ cells that recombinantly express human OX40-receptor. To this purpose PER.C6™ cells were transfected with a plasmid carrying a cDNA sequence encoding human OX40-receptor or with the empty vector and stable transfectants were selected using standard techniques known to a person skilled in the art (Coligan et al., 2001). For flow cytometry analysis, phage antibodies were first blocked in an equal volume of 4% MPBS for 15 minutes at 4° C. prior to the staining of the OX40-receptor- and control transfected PER.C6™ cells. The blocked phages were added to a mixture of unlabelled control transfected PER.C6™ cells and OX40-receptor transfected PER.C6™ cells that were labelled green using a lipophylic dye (PKH67, Sigma). The binding of the phage antibodies to the cells was visualized using a biotinylated anti-M13 antibody (Santa Cruz Biotechnology) followed by streptavidin-phycoerythrin (Caltag).

human OX40-receptor [3] = biological target: T2, human OX40-receptor; assay: flow cytometry on tonsil mononuclear cells, M13 anti-phage APC against CD4 FITC
Experimental: Inflamed tonsils were obtained from patients undergoing routine tonsillectomy. Tonsils were minced and the MNC fraction was isolated by density centrifugation. Flow cytometric analysis of the binding of the anti-OX40-receptor phage antibodies to the OX40+ CD4+ T-cells was performed as described above. The CD4+ T-cells were distinguished from total tonsil MNC using a FITC conjugated antibody against CD4. As shown in FIGS. 3A and 3B the selected anti-human OX40-receptor phage antibodies called SC02008, SC02009, SC02010, SC02011, SC02012 and SC02021 selectively stain a subset of CD4+ T-cells within tonsil and synovial fluid mononuclear cells respectively, while they display minor staining of peripheral blood CD4+ T-cells (FIG. 3C).

human OX40-receptor [4] = biological target: T2, human OX40-receptor; assay: flow cytometry on tonsil mononuclear cells, M13 anti-phage PE against CD4 FITC
human OX40-receptor [5] = biological target: T2, human OX40-receptor; assay: flow cytometry on OX40-receptor transfected (filled) and mock-transfected (open) PER.C6 cells, anti-human IgG PE, IgG1 at 20 µg/ml
Experimental: The anti-OX40 receptor IgG1 antibodies were validated for their ability to bind to PER.C6™ cells transfected with human OX40-receptor. To this purpose mock- and human OX40-receptor-transfected cells were stained with the IgG1 antibodies at a concentration of 20 μg/ml at 4° C. Binding of the antibodies called 008, 011, 021 and 023 was visualized using biotinylated goat-anti-human IgG (Fc specific, Caltag) followed by streptavidin-phyco-erythrin (Caltag). The stained cells were analyzed by flow cytometry.

B1: phage antibody SC02012 (scFv) (scFv)
scFv: MAEVQLVESGGGLVKPGGSLRLSCAASGFTFSNDSMNWMRQAPGKGLEWVANINQDGNEKYYADSVKGRFTISRDNSKNSLYLQMNSLRDEDTALYYCARARAAGTIFDYWGQGTLVTVLEGTGGSGGTGSGTGTSELDIQMTQSPSSLSASVGDRVTITCRASQNVSNYLTWYQQKPGKAGKLLIYAASSLQSGVPSRFSGSGSGTDFTLTISSLQPEDFATYYCQQSYFNPATFGQGTKLEIKRAA
[1]
  binding result: binds
Human OX40-receptor [2]
  binding result: binds

B2: phage antibody SC02011 (scFv) (scFv)
scFv: MAEVQLVESGGGVVQPGRSLRLSCAASGFTFSDYTMNWVRQAPGKGLEWVSSISGGSTYYADSRKGRFTISRDNSKNTLYLQMNNLRAEDTAVYYCARDRYFRQQNAFDYWGQGTLVTVLEGTGGSGGTGSGTGTSELDIQMTQSPVTLPVTPGEPASISCRSSQSLLHSNGYNYLDWYLQKPGQSPQLLIYLGSNRASGVPDRFSGSGSGTDFTLKISRVEAEDVGVYYCQQYLTAPPTFGQGTKLEIKRAA
[1]
  binding result: binds
Human OX40-receptor [2]
  binding result: binds

B3: phage antibody SC02008 (scFv) (scFv)
scFv: MAEVQLVESGGGLVQPGGSLRLSCAASGFTFSNYTMNWVRQAPGKGLEWVSAISGSGGSTYYADSVKGRFTISRDNSKNTLYLQMNSLRAEDTAVYYCAKDRYSQVHYALDYWGQGTLVTVLEGTGGSGGTGSGTGTSELDIQMTQSPDSLPVTPGEPASISCRSSQSLLHSNGYNYLDWYLQKAGQSPQLLIYLGSNRASGVPDRFSGSGSGTDFTLKISRVEAEDVGVYYCQQYYNHPTTFGQGTKLEIKRAA
notes: the phage coat protein fusion is not described
[1]
  binding result: binds
Human OX40-receptor [3]
  binding result: binds

B4: phage antibody SC02022 (scFv) (scFv)
scFv: MAEVQLVESGGGLVHPGGSLRLSCAGSGFTFSSYAMHWVRQAPGKGLEWVSAIGTGGGTYYADSVQGRFTISRDNAKNSLYLQMNSLRAEDTAVYYCARYDEPLTIYWFDSWGQGTLVTVSSGGGGSGGGGSGGGGSEIELTQSPATLSLSPGERATLSCRASQSVSSYLAWYQQKPGQAPRLLIYDASNRATGIPARFSGSGSGTDFTLTISSLEPEDFAVYYCQQRSNWPPAFGGGTKVEIKRAA
notes: selected on OX40+ CD4+ T-cells
Human OX40-receptor [4]
  binding result: binds

B5: phage antibody SC02023 (scFv) (scFv)
scFv: MAEVQLVESGGGLVHPGGSLRLSCAGSGFTFSSYAMHWVRQAPGKGLEWVSAIGTGGGTYYADSVMGRFTISRDNSKNTLYLQMNSLRAEDTAVYYCARYDNVMGLYWFDYWGQGTLVTVSSGGGGSGGGGSGGGGSEIELTQSPATLSLSPGERATLSCRASQSVSSYLAWYQQKPGQAPRLLIYDASNRATGIPARFSGSGSGTDFTLTISSLEPEDFAVYYCQQRSNWPPAFGGGTKVEIKRAA
notes: as for B4
Human OX40-receptor [4]
  binding result: binds

B6: human IgG1 antibody 008 (antibody, V domains shown)
VH: EVQLVESGGGLVQPGGSLRLSCAASGFTFSNYTMNWVRQAPGKGLEWVSAISGSGGSTYYADSVKGRFTISRDNSKNTLYLQMNSLRAEDTAVYYCAKDRYSQVHYALDYWGQGTLVTVSS
VL: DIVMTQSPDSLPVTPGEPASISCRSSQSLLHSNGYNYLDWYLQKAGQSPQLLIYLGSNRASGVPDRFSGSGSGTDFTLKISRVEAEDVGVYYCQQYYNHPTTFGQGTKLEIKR
notes: Human IgG1 made from scFv SC02008, expressed in PER.C6 cells; also called pgG102-008C01
Human OX40-receptor [5]
  binding result: binds

B7: human IgG1 antibody 011 (antibody, V domains shown)
VH: EVQLVESGGGVVQPGRSLRLSCAASGFTFSDYTMNWVRQAPGKGLEWVSSISGGSTYYADSRKGRFTISRDNSKNTLYLQMNNLRAEDTAVYYCARDRYFRQQNAFDYWGQGTLVTVSS
VL: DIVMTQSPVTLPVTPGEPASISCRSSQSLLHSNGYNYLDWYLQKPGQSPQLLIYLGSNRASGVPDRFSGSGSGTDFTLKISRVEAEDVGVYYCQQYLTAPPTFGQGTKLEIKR
notes: Human IgG1 made from scFv SC02011, expressed in PER.C6 cells; also called pgG102-011C01
Human OX40-receptor [5]
  binding result: binds

B8: human IgG1 antibody 021 (antibody, V domains shown)
VH: EVQLVESGGGLVQPRGSLRLSCAASGFTFSSYAMNWVRQAPGKGLEWVAVISYDGSNKYYADSVKGRFTISRDNSKNTLYLQMNSLRAEDTAVYYCAKDRYITLPNALDYWGQGTLVTVSS
VL: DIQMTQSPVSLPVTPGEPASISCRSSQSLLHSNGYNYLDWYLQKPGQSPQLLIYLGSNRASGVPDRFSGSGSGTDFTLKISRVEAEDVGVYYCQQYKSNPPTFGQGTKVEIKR
notes: Human IgG1 made from scFv SC02021, expressed in PER.C6 cells; also called pgG102-021C01
Human OX40-receptor [5]
  binding result: binds

B9: human IgG1 antibody 023 (antibody, V domains shown)
VH: EVQLVESGGGLVHPGGSLRLSCAGSGFTFSSYAMHWVRQAPGKGLEWVSAIGTGGGTYYADSVMGRFTISRDNSKNTLYLQMNSLRAEDTAVYYCARYDNVMGLYWFDYWGQGTLVTVSS
VL: EIVLTQSPATLSLSPGERATLSCRASQSVSSYLAWYQQKPGQAPRLLIYDASNRATGIPARFSGSGSGTDFTLTISSLEPEDFAVYYCQQRSNWPPAFGGGTKVEIKR
notes: Human IgG1 made from scFv SC02023, expressed in PER.C6 cells; also called pgG102-023C01
Human OX40-receptor [5]
  binding result: binds
